# Target: cyAbrB1 (Sll0359), N-terminally 6*His-tagged recombinant protein (Synechocystis sp. PCC 6803)
# Assay: native gel or EMSA
substance,measurement,value
"cyAbrB1 (Sll0359), N-terminally 6*His-tagged recombinant protein (natural protein)",stoichiometry N,2
